System: CD4loCD40+ T cells (Th40 cells)
Assay: Cytokine production of CD40- or CD3-stimulated Th40 cells with galectin-9
Assay type: cell-based, NOD mice
Conditions: 3 days; indicated concentrations of galectin-9
Method: CD4loCD40+ T cells (Th40 cells) were sorted from 7-20 weeks old female NOD spleens. Cells were either isotype treated, CD40- or CD3-stimulated in the absence/presence of indicated concentrations of galectin-9 (gal-9; mg/ml) for 3 days then cytokines were measured. Bar graphs depict means with SEM. Asterisks denote significant differences determined by one-way Anova; *-P between 0.01 and 0.05; **-P, 0.01; ***-P, 0.001. Measurements were done on four individual mice of different ages.

B1: galectin-9: galectin-9 protein added to Th40 cell cultures (protein, UniProt O00182 1-355, looked up)
Galectin-9: MAFSGSQAPYLSPAVPFSGTIQGGLQDGLQITVNGTVLSSSGTRFAVNFQTGFSGNDIAFHFNPRFEDGGYVVCNTRQNGSWGPEERKTHMPFQKGMPFDLCFLVQSSDFKVMVNGILFVQYFHRVPFHRVDTISVNGSVQLSYISFQNPRTVPVQPAFSTVPFSQPVCFPPRPRGRRQKPPGVWPANPAPITQTVIHTVQSAPGQMFSTPAIPPMMYPHPAYPMPFITTILGGLYPSKSILLSGTVLPSAQRFHINLCSGNHIAFHLNPRFDENAVVRNTQIDNSWGSEERSLPRKMPFVRGQSFSVWILCEAHCLKVAVDGQHLFEYYHRLRNLPTINRLEVGGDIQLTHVQT
  CD40 and CD3 induced cytokine production level: alters the production level
